This note sets out measurements from PMC4519180 (2015).

No end group written: not given here. *: point of attachment. 6FAM = O=C1OC2(c3ccc(O)cc3Oc3cc(O)ccc32)c2cc(C(=O)*)ccc21

A word on the Kd: it is the constant that tells how readily two partners part at equilibrium.

The test deals with recombinant purified ABL SH3 domain alone (human).
Chain of recombinant purified ABL SH3 domain alone (human) (chain, as listed by the source): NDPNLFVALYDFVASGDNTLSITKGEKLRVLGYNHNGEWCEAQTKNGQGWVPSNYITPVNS

With 6FAM-APTMPPPLPP [3BP-1 probe peptide, labeled with 6-carboxyfluorescein], the Kd worked out at 34000 nM.

On to APSYSPPPPP [unlabeled p41 peptide], for which the Kd was 1500 nM.

On to 6FAM-APTYPPPLPP [p40 probe peptide, labeled with 6-carboxyfluorescein], for which the equilibrium dissociation constant (Kd) was 400 nM.
